The test relates to Streptococcus pyogenes ATCC #19615. As to the kind of experiment: LF/GMP assay, viable plate count (pour plate) of broth culture. On the set-up: key to MIBC: NCF: No Effective Concentration Found. The settings on record: 35° C.; for Colony Counts: viable plate count. It is filed as cell-based. As for the experimental part: Bacterial strains used in this study were Pseudomonas aeruginosa ATCC #27853, Streptococcus mutans ATCC #33535, Streptococcus pyogenes ATCC #19615, and Actinobacillus haemophilus ATCC #43717 and an oral swab from a healthy adult. Bacteria were grown on blood/BHT media (Brain Heart Infusion Agar with protease peptone, sodium chloride, glucose, di-sodium phosphate, and agar, Oxoid, Hampshire England, Sheep's Blood) in the presence of 5% CO2 at 35° C. […] The 0.5 McFarland value is approximately equivalent to 1.0×10^8 organisms. One ml of the appropriate bacterial dilution was taken using a sterile pipette and introduced into 8 ml of sterilized BHI broth. […] By pipette, 9 ml of broth was placed into medium test tubes as means of a control and 8 ml test tubes were prepared for the concentration tests). […] This solution was filtered through a 0.45 μm filter. […] Example for calculating 2,500 ppm dilution (1,000 ppm=0.1%): [formula] [formula] [formula] To study the kinetics of LF/GMP binding, each strain of bacteria was taken separately with a sterile pipette and placed into an 8 ml BHI broth test tube, vortexed, and incubated in the presence of 1 ml of LF or GMP for 18-24 hours at 35° C. with 5% CO2. In the combination procedure, 0.5 ml of both LF and […] were taken as 1 ml inoculations. This technique was used to determine the density of living (viable) cells in inoculated broth cultures. It involves plating a bacterial sample and counting the resulting colonies after incubation. A serial dilution of the original broth was taken prior to plating. The serial dilution is necessary to reduce the density of organisms in order to create countable plates. Only plates containing between 25 and 250 colonies are considered countable. Cell densities are traditionally recorded as CFU (colony forming unit)/ml. […] Formula: [formula] The assays required the use of a pour plate technique. The pour plate technique adds a step to the conventional serial dilution. The 1 ml of dilution is added to a warm emulsion of dilute nutrient (BHI) agar to produce an agar overlay in the petri plates. After incubation, the bacterial growth covers the entire plate but individual cellular movement has been restricted by the soft agar overlay. Each colony formed is assumed to have originated from a single CFU. The plates were gently mixed, inverted, and incubated for 18-24 hour at 35° C. Using a control (one broth tube inoculated with a bacterial strain, but no LF), the effectiveness of LF was examined. Each test tube containing a specified amount of LF (50, 100, 250, 500, 1,000 ppm and 3000 ppm) was diluted and plates were poured. After incubating the plates for 24 hours at 35° C. with 5% CO2 (the normal conditions of an oral cavity), the bacterial recovery count was taken and the results were compared to the control. A. haemophilus, S. mutans, S. pyrogenes and an oral culture were tested at 35° C. Pseudomonas aeruginosa was tested at both room temperature and 35° C. with 5% CO2. This was done because P. aeruginosa is not strictly an oral pathogen. It is commonly found in the environment in various conditions. It can be found in the environment and oral intake can cause inflammation in the oral cavity. Most normal oral bacteria are only found in the mouth and are not taken in from outside factors. Therefore, P. aeruginosa is a threat in both temperature settings. Table 1 depicts the minimum inhibitor concentration (MBEC) for each of the bacterial strains at 35° C. S. pyogenes and the oral culture were not effected by LF at any tested concentration. […] (see Table 2).

B1: LF: Bovine lactoferrin, iron-binding glycoprotein purified from milk, provided by DMV International (protein, UniProt P24627 20-708, looked up)
Lactotransferrin: APRKNVRWCTISQPEWFKCRRWQWRMKKLGAPSITCVRRAFALECIRAIAEKKADAVTLDGGMVFEAGRDPYKLRPVAAEIYGTKESPQTHYYAVAVVKKGSNFQLDQLQGRKSCHTGLGRSAGWIIPMGILRPYLSWTESLEPLQGAVAKFFSASCVPCIDRQAYPNLCQLCKGEGENQCACSSREPYFGYSGAFKCLQDGAGDVAFVKETTVFENLPEKADRDQYELLCLNNSRAPVDAFKECHLAQVPSHAVVARSVDGKEDLIWKLLSKAQEKFGKNKSRSFQLFGSPPGQRDLLFKDSALGFLRIPSKVDSALYLGSRYLTTLKNLRETAEEVKARYTRVVWCAVGPEEQKKCQQWSQQSGQNVTCATASTTDDCIVLVLKGEADALNLDGGYIYTAGKCGLVPVLAENRKSSKHSSLDCVLRPTEGYLAVAVVKKANEGLTWNSLKDKKSCHTAVDRTAGWNIPMGLIVNQTGSCAFDEFFSQSCAPGADPKSRLCALCAGDDQGLDKCVPNSKEKYYGYTGAFRCLAEDVGDVAFVKNDTVWENTNGESTADWAKNLNREDFRLLCLDGTRKPVTEAQSCHLAVAPNHAVVSRSDRAAHVKQVLLHQQALFGKNGKNCPDKFCLFKSETKNLLFNDNTECLAKLGGRPTYEEYLGTEYVTAIANLKKCSTSPLLEACAFLTR
On to B1, for which the “Colony Counts” value (50 ppm, 24 h) is on record as 5.8 × 10^7; the “Colony Counts” value (100 ppm, 24 h) was 1.5 × 10^7; the “Colony Counts” value (500 ppm, 24 h) is given as 7.8 × 10^7; the “Colony Counts” value (3,000 ppm, 24 h) is reported as 1.7 × 10^8. Also, the “Total Log Reduction” value is on record as 0 log (Lactoferrin/GMP 250/0 ppm (LF alone)) and 0 log (Lactoferrin/GMP 3,000/0 ppm (LF alone)). In addition, the “# Log Reductions” value (at the MIBC, vs control) was determined as 0 log. For the same molecule, the “effect on growth (in words)” value (single agent, any tested concentration) is “not effected”. In addition, the MIBC entry (single agent, 24 h, 5% CO2) is reported as “NCF”.

These data come from patent publication US6890900B2, “Methods for treating or preventing diseases of the oral cavity” (Campina B.V., priority 2001, dated 2005).
